Source: patent US20050037967A1 (RESEARCH DEVELOPMENT FOUNDATION, published 2005)

Experiments:
[1] = molecular target: human FLT-1 receptor (VEGFR-1) on PAE/FLT-1 cells (human) (UniProt P17948); assay: cell-based or functional assay
[2] = molecular target: KDR/Flk-1 on adult bovine aortic arch-derived endothelial cells (ABAE) (bovine); assay: cell-based or functional assay
FLK-1 on PAE/FLK-1 cells = assay: cell-based or functional assay
[3] = molecular target: human kinase domain receptor (KDR, VEGFR-2) on cells (human) (UniProt P35968); assay: cell-based or functional assay
Sequence of human kinase domain receptor (KDR, VEGFR-2) on cells (human) (P35968 20-1356): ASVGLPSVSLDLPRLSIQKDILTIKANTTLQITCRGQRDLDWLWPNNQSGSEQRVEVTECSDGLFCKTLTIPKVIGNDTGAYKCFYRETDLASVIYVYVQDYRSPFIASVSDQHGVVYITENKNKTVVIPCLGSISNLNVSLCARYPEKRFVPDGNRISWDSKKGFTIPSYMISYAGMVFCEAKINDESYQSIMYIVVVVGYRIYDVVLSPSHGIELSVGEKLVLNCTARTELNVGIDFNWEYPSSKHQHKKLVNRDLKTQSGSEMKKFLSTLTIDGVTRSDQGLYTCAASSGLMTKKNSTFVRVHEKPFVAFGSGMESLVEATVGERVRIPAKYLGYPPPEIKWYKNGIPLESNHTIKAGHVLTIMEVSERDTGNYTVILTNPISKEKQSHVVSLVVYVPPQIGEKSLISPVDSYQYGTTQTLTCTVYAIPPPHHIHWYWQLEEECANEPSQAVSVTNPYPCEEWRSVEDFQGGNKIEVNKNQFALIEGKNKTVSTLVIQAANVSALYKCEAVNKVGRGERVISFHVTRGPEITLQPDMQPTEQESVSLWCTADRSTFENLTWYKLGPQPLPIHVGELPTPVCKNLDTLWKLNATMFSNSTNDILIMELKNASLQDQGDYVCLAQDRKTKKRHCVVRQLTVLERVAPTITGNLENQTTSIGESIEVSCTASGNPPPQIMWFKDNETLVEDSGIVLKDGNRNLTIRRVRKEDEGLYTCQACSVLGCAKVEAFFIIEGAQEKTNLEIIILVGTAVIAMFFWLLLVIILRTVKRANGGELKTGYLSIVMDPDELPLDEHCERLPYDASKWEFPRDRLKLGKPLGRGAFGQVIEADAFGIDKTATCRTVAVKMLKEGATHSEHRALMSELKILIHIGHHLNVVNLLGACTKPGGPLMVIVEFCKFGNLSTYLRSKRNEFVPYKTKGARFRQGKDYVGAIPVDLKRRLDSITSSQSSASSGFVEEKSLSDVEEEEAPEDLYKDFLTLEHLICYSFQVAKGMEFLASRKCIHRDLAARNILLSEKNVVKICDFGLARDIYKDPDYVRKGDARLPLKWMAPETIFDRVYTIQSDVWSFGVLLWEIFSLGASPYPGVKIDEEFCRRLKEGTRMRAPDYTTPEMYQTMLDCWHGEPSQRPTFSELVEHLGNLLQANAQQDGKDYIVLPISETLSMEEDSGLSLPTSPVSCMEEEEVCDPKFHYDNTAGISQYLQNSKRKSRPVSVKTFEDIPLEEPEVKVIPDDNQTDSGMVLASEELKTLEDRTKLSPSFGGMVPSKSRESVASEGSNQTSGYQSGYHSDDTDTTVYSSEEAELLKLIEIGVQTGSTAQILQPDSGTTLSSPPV

[4] = molecular target: Flt-1 on osteoclast precursor cells (RAW 264.7 cells and mouse bone marrow-derived monocytes) (mouse) (UniProt P35969); assay: cell-based or functional assay
Sequence of Flt-1 on osteoclast precursor cells (RAW 264.7 cells and mouse bone marrow-derived monocytes) (mouse) (P35969 23-1333 S1181G): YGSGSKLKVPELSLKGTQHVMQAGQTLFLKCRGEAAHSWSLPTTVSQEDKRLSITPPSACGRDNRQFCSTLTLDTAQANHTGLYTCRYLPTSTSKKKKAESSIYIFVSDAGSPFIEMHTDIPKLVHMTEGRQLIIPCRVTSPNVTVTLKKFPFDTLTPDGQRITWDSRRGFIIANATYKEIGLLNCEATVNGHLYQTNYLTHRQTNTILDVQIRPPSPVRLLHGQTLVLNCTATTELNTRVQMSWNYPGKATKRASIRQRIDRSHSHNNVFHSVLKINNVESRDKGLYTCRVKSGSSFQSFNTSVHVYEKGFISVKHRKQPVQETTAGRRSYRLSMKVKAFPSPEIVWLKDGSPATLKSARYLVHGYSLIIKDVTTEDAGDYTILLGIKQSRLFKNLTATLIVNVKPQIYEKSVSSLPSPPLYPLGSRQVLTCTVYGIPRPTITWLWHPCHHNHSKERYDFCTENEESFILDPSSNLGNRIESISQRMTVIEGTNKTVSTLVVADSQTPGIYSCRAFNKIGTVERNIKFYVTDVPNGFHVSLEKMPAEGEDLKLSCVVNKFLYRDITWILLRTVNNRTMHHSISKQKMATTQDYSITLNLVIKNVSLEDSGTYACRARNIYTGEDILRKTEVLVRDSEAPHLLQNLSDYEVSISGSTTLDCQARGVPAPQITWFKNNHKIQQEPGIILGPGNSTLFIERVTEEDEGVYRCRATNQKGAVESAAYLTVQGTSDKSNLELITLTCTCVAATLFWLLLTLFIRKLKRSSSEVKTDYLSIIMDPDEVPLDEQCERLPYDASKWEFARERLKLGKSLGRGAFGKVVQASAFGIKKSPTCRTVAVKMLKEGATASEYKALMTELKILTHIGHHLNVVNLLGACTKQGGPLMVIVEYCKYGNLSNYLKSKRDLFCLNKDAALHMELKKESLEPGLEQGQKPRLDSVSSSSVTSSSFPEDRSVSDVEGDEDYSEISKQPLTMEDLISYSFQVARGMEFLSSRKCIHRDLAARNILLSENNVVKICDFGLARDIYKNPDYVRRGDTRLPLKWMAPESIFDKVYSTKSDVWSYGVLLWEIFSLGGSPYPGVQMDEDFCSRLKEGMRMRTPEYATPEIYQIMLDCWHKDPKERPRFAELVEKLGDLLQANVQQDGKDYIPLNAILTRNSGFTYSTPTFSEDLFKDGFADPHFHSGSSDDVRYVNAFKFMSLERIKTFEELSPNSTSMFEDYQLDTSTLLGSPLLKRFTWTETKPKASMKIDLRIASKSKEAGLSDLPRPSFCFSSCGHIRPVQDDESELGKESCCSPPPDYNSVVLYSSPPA

[5] = molecular target: Flk-1 on murine brain endothelioma bEnd.3 cells (mouse) (UniProt P35918); assay: cell-based or functional assay
[6] = molecular target: T1, soluble mouse Flk-1, purified and biotinylated, expressed in Sf9 cells (mouse, UniProt P35918 20-762); assay: ELISA, biotinylated soluble mouse Flk-1 on NeutrAvidin-coated plates; detection with 2C3
T1 construct: Captured on NeutrAvidin-coated plates; Only 'soluble' is said of the construct; also called biotinylated mouse flk-1 receptor; flk-1 receptor
T1 sequence (P35918 20-762 limits assumed): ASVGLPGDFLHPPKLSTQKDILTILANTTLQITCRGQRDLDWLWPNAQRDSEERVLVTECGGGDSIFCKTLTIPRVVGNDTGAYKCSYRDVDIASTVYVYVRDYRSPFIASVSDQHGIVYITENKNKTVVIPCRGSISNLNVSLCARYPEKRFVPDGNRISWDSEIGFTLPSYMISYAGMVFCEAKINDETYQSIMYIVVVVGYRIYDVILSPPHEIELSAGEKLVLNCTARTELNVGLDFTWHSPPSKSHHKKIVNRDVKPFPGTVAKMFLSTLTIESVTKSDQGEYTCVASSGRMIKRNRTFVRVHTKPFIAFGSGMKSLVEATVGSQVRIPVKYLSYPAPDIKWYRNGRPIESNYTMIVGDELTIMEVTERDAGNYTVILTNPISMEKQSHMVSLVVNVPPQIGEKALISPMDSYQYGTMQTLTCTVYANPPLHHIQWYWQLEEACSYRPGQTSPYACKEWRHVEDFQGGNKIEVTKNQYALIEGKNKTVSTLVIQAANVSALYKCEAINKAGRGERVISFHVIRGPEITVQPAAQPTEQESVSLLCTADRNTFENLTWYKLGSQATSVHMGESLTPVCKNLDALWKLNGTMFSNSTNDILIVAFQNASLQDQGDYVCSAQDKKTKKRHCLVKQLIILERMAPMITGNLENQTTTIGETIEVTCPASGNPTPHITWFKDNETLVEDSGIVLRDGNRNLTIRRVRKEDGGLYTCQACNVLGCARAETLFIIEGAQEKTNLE

Sequence of FLK-1 on PAE/FLK-1 cells (P35968 20-1356): as the sequence (P35968 20-1356) above
Sequence of human FLT-1 receptor (VEGFR-1) on PAE/FLT-1 cells (human) (P17948 27-1338): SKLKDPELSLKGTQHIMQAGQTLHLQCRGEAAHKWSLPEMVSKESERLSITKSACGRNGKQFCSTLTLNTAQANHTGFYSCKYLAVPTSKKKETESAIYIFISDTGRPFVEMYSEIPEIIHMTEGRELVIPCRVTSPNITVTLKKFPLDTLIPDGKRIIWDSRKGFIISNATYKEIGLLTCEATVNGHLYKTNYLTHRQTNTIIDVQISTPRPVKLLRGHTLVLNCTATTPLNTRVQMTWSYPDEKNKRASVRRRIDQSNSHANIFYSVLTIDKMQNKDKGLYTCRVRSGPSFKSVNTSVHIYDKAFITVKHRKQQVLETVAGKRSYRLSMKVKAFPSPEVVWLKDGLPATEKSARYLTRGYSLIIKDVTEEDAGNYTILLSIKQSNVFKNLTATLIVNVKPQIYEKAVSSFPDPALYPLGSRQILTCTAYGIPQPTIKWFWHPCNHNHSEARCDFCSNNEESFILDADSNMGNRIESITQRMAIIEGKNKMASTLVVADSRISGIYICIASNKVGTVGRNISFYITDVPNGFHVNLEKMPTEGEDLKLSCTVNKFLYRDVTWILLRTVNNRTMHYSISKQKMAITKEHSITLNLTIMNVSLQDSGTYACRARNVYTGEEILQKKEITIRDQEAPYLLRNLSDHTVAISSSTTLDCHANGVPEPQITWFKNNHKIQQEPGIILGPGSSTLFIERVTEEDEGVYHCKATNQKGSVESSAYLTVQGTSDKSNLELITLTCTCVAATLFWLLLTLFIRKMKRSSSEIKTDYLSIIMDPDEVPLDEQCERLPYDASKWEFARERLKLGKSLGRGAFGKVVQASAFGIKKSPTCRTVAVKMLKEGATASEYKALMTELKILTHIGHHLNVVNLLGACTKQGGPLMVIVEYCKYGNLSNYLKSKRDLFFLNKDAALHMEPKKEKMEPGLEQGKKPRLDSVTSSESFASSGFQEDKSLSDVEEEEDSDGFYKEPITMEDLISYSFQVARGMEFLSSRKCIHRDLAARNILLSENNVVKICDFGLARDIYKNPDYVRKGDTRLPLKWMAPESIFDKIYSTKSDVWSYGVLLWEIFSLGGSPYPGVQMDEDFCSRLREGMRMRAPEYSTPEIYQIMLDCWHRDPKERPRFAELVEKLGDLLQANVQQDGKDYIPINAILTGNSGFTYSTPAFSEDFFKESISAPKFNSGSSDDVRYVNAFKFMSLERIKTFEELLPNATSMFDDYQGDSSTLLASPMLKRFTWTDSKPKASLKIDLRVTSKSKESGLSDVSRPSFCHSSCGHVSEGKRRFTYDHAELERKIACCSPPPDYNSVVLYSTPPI

For “VEGF121/rGel fusion toxin (VEGF121 at the N-terminus, G4S tether, recombinant gelonin) (from UniProt P15692 27-147; P33186 47-297)”, the IC50 for VEGF121/rGel (nM), cytotoxicity, PAE/FLT-1 (confluent) [1] was greater than 5000 nM, the IC50 for VEGF121/rGel (nM), cytotoxicity, PAE/FLT-1 (log phase) [1] was 300 nM and the Targeting index, PAE/FLT-1 (confluent) [1] was less than 2. It also gave a Targeting index, PAE/FLT-1 (log phase) [1] of 1, a dose inhibiting tube formation of PAE/Flt-1 cells on Matrigel by 50% [1] of 100 nM and an IC50 for VEGF121/rGel (nM), cytotoxicity, ABAE (log phase) [2] of 0.059 nM. For the same molecule, the Targeting index, ABAE (log phase) [2] was 8.9, the IC50, cytotoxicity on PAE/FLK-1 cells, XTT, 72 h (FLK-1 on PAE/FLK-1 cells) was 1 nM and the IC50, cytotoxicity on log-phase PAE/KDR cells, 72 h (bladder tumor comparison experiment) [3] was 1 nM. For the same molecule, the IC50 for VEGF121/rGel (nM), cytotoxicity, HUVEC (hypoxia) [3] was 700 nM, the IC50 for VEGF121/rGel (nM), cytotoxicity, HUVEC (normoxia) [3] was 800 nM and the IC50 for VEGF121/rGel (nM), cytotoxicity, PAE/KDR (confluent) [3] was 30 nM. It also gave an IC50 for VEGF121/rGel (nM), cytotoxicity, PAE/KDR (log phase), 72 h [3] of 0.5 nM, a Targeting index (ratio of IC50 of rGel to VEGF121/rGel), PAE/KDR (log phase) [3] of 600 and a Targeting index, HUVEC (hypoxia) [3] of 1. It also gave a Targeting index, HUVEC (normoxia) [3] of 1, a Targeting index, PAE/KDR (confluent) [3] of 167 and a dose inhibiting tube formation of PAE/KDR cells on Matrigel by 50% [3] of 1 nM. It also gave an IC50, cytotoxicity on bone marrow-derived monocytes [4] of 10 nM, an IC50, cytotoxicity on dividing RAW cells [4] of 40 nM and an IC50 for VEGF121/rGel (nM), cytotoxicity, bEnd3 (log phase) [5] of 1 nM. The Targeting index, bEnd3 (log phase) [5] was 100.

With “GrB/VEGF121 fusion protein (mature granzyme B, G4S tether, VEGF121) (from UniProt P10144 21-247; P15692 27-147)” the clonogenic (colony-forming) assay on PAE/FLT-1 cells [1] was greater than 100 nM, the cytotoxicity on log-phase PAE/FLT-1 cells, XTT, 72 h [1] was greater than 200 nM and the IC50, clonogenic (colony-forming) assay on PAE/FLK-1 cells (FLK-1 on PAE/FLK-1 cells) was 20 nM. It also gave an IC50, cytotoxicity on log-phase PAE/FLK-1 cells, XTT, 72 h (FLK-1 on PAE/FLK-1 cells) of 10 nM.

B1: native human VEGF121 (ligand)
chain: APMAEGGGQNHHEVVKFMDVYQRSYCHPIETLVDIFQEYPDEIEYIFKPSCVPLMRCGGCCNDEGLECVPTEESNITMQIMRIKPHQGQHIGEMSFLQHNKCECRPKKDRARQEKCDKPRR
notes: mature; also called free VEGF121
B1: binds [6].
